The supplement of paper PMC10724198
± gives the standard deviation of the averaged measurements.

Legend:
Saccharomyces cerevisiae [1] = test: protein stability index of tFT-peptide fusion (C-terminal peptide) (PSI (0-1 scale)); higher = more stable (slower turnover)
Method: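 MPS profiling in S. cerevisiae of the tFT-X12 degron library: putative degron peptides plus stable controls, 12 aa, fused to the C-terminus of a sfGFP-mCherry timer. Cells are FACS-sorted into 8 mCherry/sfGFP bins and deep-sequenced. PSI runs from 0 (unstable) to 1 (stable). Backgrounds are wild type, das1Δ and doa10Δ at 30 °C, and wild type, das1Δ, cdc34-1 and cdc53-1 at 37 °C; 2-3 technical replicates each.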

Saccharomyces cerevisiae [2] = test: as above; conditions: genetic background: wild type; temperature: 30 C
[3] = genetic background: cdc34-1, temperature: 37 C
[4] = genetic background: cdc53-1, temperature: 37 C
[5] = genetic background: das1 deletion, temperature: 30 C
[6] = genetic background: das1 deletion, temperature: 37 C
[7] = genetic background: doa10 deletion, temperature: 30 C
[8] = genetic background: wild type, temperature: 30 C
[9] = genetic background: wild type, temperature: 37 C
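Note: PSI is a weighted mean of sequencing reads over stability bins, variants kept only with over 10 reads, mCherry proximal and sfGFP distal, peptide attached via GGGS linker.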

| Sequence | protein stability index (Saccharomyces cerevisiae [1]; [3]) | protein stability index (Saccharomyces cerevisiae [1]; [4]) | protein stability index (Saccharomyces cerevisiae [1]; [5]) | protein stability index (Saccharomyces cerevisiae [1]; [6]) | protein stability index (Saccharomyces cerevisiae [1]; [7]) | protein stability index (Saccharomyces cerevisiae [1]; [8]) | protein stability index (Saccharomyces cerevisiae [1]; [9]) | protein stability index (Saccharomyces cerevisiae [2]) |
| --- | --- | --- | --- | --- | --- | --- | --- | --- |
| LVDPFAALRHVV | 0.624 ± 0.026 | 0.768 ± 0.0078 | 0.709 ± 0.016 | 0.71 ± 0.013 | 0.15 ± 0.014 | 0.173 ± 0.024 | 0.3825 ± 0.0015 | 0.246 ± 0.0088 |
| LVGWSWRGWFVV | 0.512 ± 0.029 | 0.6899 ± 0.0065 | 0.6201 ± 0.0015 | 0.769 ± 0.015 | 0.0763 ± 0.011 | 0.094 ± 0.029 | 0.112 ± 0.012 | 0.139 ± 0.025 |
| LVIFSLLFSFSH | 0.22 ± 0.011 | 0.325 ± 0.047 | 0.212 ± 0.032 | 0.394 ± 0.018 | 0.194 ± 0.0075 | 0.232 ± 0.015 | 0.3837 ± 0.00069 | 0.32 ± 0.028 |
| LVLVVFCPLWFW | 0.483 ± 0.035 | 0.581 ± 0.024 | 0.401 ± 0.037 | 0.5794 ± 0.0036 | 0.4422 ± 0.00092 | 0.388 ± 0.0094 | 0.56 ± 0.024 | 0.43567 ± 0.00031 |
| LVPLSLLLCFFV | 0.515 ± 0.027 | 0.5647 ± 0.0036 | 0.411 ± 0.028 | 0.551 ± 0.0063 | 0.178 ± 0.0019 | 0.205 ± 0.015 | 0.354 ± 0.0088 | 0.3058 ± 0.0028 |
| LWAPFWVSRVTA | 0.481 ± 0.017 | 0.513 ± 0.0085 | 0.408 ± 0.035 | 0.5677 ± 0.0039 | 0.21 ± 0.004 | 0.247 ± 0.026 | 0.42 ± 0.0086 | 0.347 ± 0.012 |
| LWGLVWGGVWGV | 0.683 ± 0.039 | 0.722 ± 0.013 | 0.564 ± 0.014 | 0.729 ± 0.012 | 0.5683 ± 0.0018 | 0.573 ± 0.015 | 0.705 ± 0.0096 | 0.439 ± 0.015 |
| LYRIETLFMRAQ | 0.353 ± 0.029 | 0.41 ± 0.022 | 0.435 ± 0.035 | 0.407 ± 0.035 | 0.389 ± 0.059 | 0.358 ± 0.019 | 0.354 ± 0.019 | 0.383 ± 0.021 |
| LYVQSVCFSVPR | 0.463 ± 0.024 | 0.537 ± 0.017 | 0.445 ± 0.021 | 0.5091 ± 0.002 | 0.497 ± 0.052 | 0.431 ± 0.012 | 0.486 ± 0.0089 | 0.422 ± 0.012 |
| MALAVRVVLCGA | 0.0507 ± 0.0085 | 0.0673 ± 0.038 | 0.165 ± 0.026 | 0.192 ± 0.0025 | 0.116 ± 0.029 | 0.153 ± 0.0088 | 0.168 ± 0.0051 | 0.236 ± 0.034 |
| MALAVRVVRCGA | 0.406 ± 0.0042 | 0.422 ± 0.018 | 0.302 ± 0.025 | 0.4769 ± 0.0017 | 0.227 ± 0.043 | 0.233 ± 0.038 | 0.379 ± 0.033 | 0.353 ± 0.024 |
| MGVTVRVEGIRA | 0.52 ± 0.036 | 0.517 ± 0.013 | 0.368 ± 0.03 | 0.55332 ± 0.0004 | 0.3374 ± 0.00071 | 0.383 ± 0.013 | 0.537 ± 0.015 | 0.369 ± 0.084 |
| MLIAISASAARF | 0.452 ± 0.037 | 0.5819 ± 0.0017 | 0.417 ± 0.027 | 0.501 ± 0.016 | 0.45 ± 0.02 | 0.44 ± 0.034 | 0.498 ± 0.0095 | 0.4184 ± 0.00049 |
| MLLFVSCCVFLF | 0.134 ± 0.021 | 0.185 ± 0.011 | 0.202 ± 0.038 | 0.292 ± 0.0093 | 0.157 ± 0.0093 | 0.169 ± 0.032 | 0.219 ± 0.019 | 0.206 ± 0.063 |
| MMYTLSMLLRLR | 0.43 ± 0.014 | 0.5 ± 0.0093 | 0.506 ± 0.016 | 0.528 ± 0.015 | 0.64799 ± 0.00045 | 0.52 ± 0.02 | 0.546 ± 0.0085 | 0.513 ± 0.047 |
| MPQSLKKMVFLA | 0.431 ± 0.057 | 0.628 ± 0.022 | 0.61 ± 0.032 | 0.6621 ± 0.005 | 0.0709 ± 0.025 | 0.0847 ± 0.0032 | 0.0875 ± 0.024 | 0.1516 ± 0.0014 |
| MRLQLTFSILLF | 0.353 ± 0.036 | 0.43 ± 0.034 | 0.378 ± 0.021 | 0.393 ± 0.0059 | 0.4027 ± 0.0029 | 0.37 ± 0.021 | 0.3598 ± 0.0024 | 0.389 ± 0.019 |
| MSRALSVLVVVA | 0.176 ± 0.029 | 0.211 ± 0.011 | 0.213 ± 0.036 | 0.323 ± 0.0062 | 0.172 ± 0.0091 | 0.22 ± 0.019 | 0.287 ± 0.029 | 0.312 ± 0.012 |
| MTLYSFSSALLA | 0.413 ± 0.045 | 0.464 ± 0.013 | 0.316 ± 0.014 | 0.461 ± 0.002 | 0.27 ± 0.038 | 0.276 ± 0.016 | 0.423 ± 0.0074 | 0.3535 ± 0.0027 |
